Numbered stars: 1 amine (or outer) side, 2 acyl side, 3 side chain; on linkers, the order of the positions; unused ones are H or OH. Bridge positions count the residues as written; N and C are the ends. Side chains are listed from the residue outwards. Ends that are not written are not given here. * marks the point of attachment. C20 diacid = O=C(O)CCCCCCCCCCCCCCCCCCC(=O)*; γGlu = O=C(O)[C@H](CCC(=O)[*:2])N[*:1]
T1: human calcitonin receptor (human, UniProt P30988 25-474)
T1 construct: whole, on cells; also called hCTR; hCT
T1 sequence (looked up): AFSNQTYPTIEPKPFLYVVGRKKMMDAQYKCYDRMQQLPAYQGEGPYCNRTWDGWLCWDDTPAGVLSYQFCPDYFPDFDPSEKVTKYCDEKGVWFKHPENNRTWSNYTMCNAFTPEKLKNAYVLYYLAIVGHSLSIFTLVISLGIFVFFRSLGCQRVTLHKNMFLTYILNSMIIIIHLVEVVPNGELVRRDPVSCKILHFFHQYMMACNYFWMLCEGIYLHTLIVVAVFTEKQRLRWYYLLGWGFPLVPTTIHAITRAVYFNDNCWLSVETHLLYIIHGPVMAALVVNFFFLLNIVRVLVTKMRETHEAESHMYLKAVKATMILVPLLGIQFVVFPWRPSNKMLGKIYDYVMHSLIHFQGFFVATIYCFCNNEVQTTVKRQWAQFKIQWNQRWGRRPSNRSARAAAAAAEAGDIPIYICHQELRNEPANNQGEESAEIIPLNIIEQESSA


Target: T1, human calcitonin receptor
Assay: SPA competition with 125I-calcitonin, membranes of BHK hCTR cells (Assay VII)
Summary of the method: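 BHK hCTR membranes 35 ng/μL + SPA beads 0.05 mg/well; buffer 50 mM Hepes pH 7.4, 1 mM CaCl2, 5 mM MgCl₂, 0.1% OA, 0.02% Tween20. 120 min, 25° C., shaking. Scintillation count; IC50 by one-site binding competition.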

| IC50 [µM] | Binder |
| --- | --- |
| 0.0311 | K([γGlu-C20 diacid])CNTATCATQRLAEFLRHSSPNFGAIPSSTNVGSRTY-NH2 (disulfide 2-7; N-terminus assumed; SMILES CC[C@H](C)[C@H](NC(=O)[C@H](C)NC(=O)CNC(=O)[C@H](Cc1ccccc1)NC(=O)[C@H](CC(N)=O)NC(=O)[C@@H]1CCCN1C(=O)[C@H](CO)NC(=O)[C@H](CO)NC(=O)[C@H](Cc1c[nH]cn1)NC(=O)[C@H](CCCNC(=N)N)NC(=O)[C@H](CC(C)C)NC(=O)[C@H](Cc1ccccc1)NC(=O)[C@H](CCC(=O)O)NC(=O)[C@H](C)NC(=O)[C@H](CC(C)C)NC(=O)[C@H](CCCNC(=N)N)NC(=O)[C@H](CCC(N)=O)NC(=O)[C@@H](NC(=O)[C@H](C)NC(=O)[C@@H]1CSSC[C@H](NC(=O)[C@@H](N)CCCCNC(=O)CC[C@H](NC(=O)CCCCCCCCCCCCCCCCCCC(=O)O)C(=O)O)C(=O)N[C@@H](CC(N)=O)C(=O)N[C@@H]([C@@H](C)O)C(=O)N[C@@H](C)C(=O)N[C@@H]([C@@H](C)O)C(=O)N1)[C@@H](C)O)C(=O)N1CCC[C@H]1C(=O)N[C@@H](CO)C(=O)N[C@@H](CO)C(=O)N[C@H](C(=O)N[C@@H](CC(N)=O)C(=O)N[C@H](C(=O)NCC(=O)N[C@@H](CO)C(=O)N[C@@H](CCCNC(=N)N)C(=O)N[C@H](C(=O)N[C@@H](Cc1ccc(O)cc1)C(N)=O)[C@@H](C)O)C(C)C)[C@@H](C)O, also called compound 51) |
| 0.00617 | K([γGlu-C20 diacid])CNTATCATQRLAHFLRHSSPNFGAIPSSTPVGSNTY-NH2 (disulfide 2-7; N-terminus assumed; SMILES CC[C@H](C)[C@H](NC(=O)[C@H](C)NC(=O)CNC(=O)[C@H](Cc1ccccc1)NC(=O)[C@H](CC(N)=O)NC(=O)[C@@H]1CCCN1C(=O)[C@H](CO)NC(=O)[C@H](CO)NC(=O)[C@H](Cc1c[nH]cn1)NC(=O)[C@H](CCCNC(=N)N)NC(=O)[C@H](CC(C)C)NC(=O)[C@H](Cc1ccccc1)NC(=O)[C@H](Cc1c[nH]cn1)NC(=O)[C@H](C)NC(=O)[C@H](CC(C)C)NC(=O)[C@H](CCCNC(=N)N)NC(=O)[C@H](CCC(N)=O)NC(=O)[C@@H](NC(=O)[C@H](C)NC(=O)[C@@H]1CSSC[C@H](NC(=O)[C@@H](N)CCCCNC(=O)CC[C@H](NC(=O)CCCCCCCCCCCCCCCCCCC(=O)O)C(=O)O)C(=O)N[C@@H](CC(N)=O)C(=O)N[C@@H]([C@@H](C)O)C(=O)N[C@@H](C)C(=O)N[C@@H]([C@@H](C)O)C(=O)N1)[C@@H](C)O)C(=O)N1CCC[C@H]1C(=O)N[C@@H](CO)C(=O)N[C@@H](CO)C(=O)N[C@H](C(=O)N1CCC[C@H]1C(=O)N[C@H](C(=O)NCC(=O)N[C@@H](CO)C(=O)N[C@@H](CC(N)=O)C(=O)N[C@H](C(=O)N[C@@H](Cc1ccc(O)cc1)C(N)=O)[C@@H](C)O)C(C)C)[C@@H](C)O, also called compound 62) |
| 0.018 | K([γGlu-C20 diacid])CNTATCATQRLAHFLRHSSPNFGAIPSSTNVGSHTY-NH2 (disulfide 2-7; N-terminus assumed; SMILES CC[C@H](C)[C@H](NC(=O)[C@H](C)NC(=O)CNC(=O)[C@H](Cc1ccccc1)NC(=O)[C@H](CC(N)=O)NC(=O)[C@@H]1CCCN1C(=O)[C@H](CO)NC(=O)[C@H](CO)NC(=O)[C@H](Cc1c[nH]cn1)NC(=O)[C@H](CCCNC(=N)N)NC(=O)[C@H](CC(C)C)NC(=O)[C@H](Cc1ccccc1)NC(=O)[C@H](Cc1c[nH]cn1)NC(=O)[C@H](C)NC(=O)[C@H](CC(C)C)NC(=O)[C@H](CCCNC(=N)N)NC(=O)[C@H](CCC(N)=O)NC(=O)[C@@H](NC(=O)[C@H](C)NC(=O)[C@@H]1CSSC[C@H](NC(=O)[C@@H](N)CCCCNC(=O)CC[C@H](NC(=O)CCCCCCCCCCCCCCCCCCC(=O)O)C(=O)O)C(=O)N[C@@H](CC(N)=O)C(=O)N[C@@H]([C@@H](C)O)C(=O)N[C@@H](C)C(=O)N[C@@H]([C@@H](C)O)C(=O)N1)[C@@H](C)O)C(=O)N1CCC[C@H]1C(=O)N[C@@H](CO)C(=O)N[C@@H](CO)C(=O)N[C@H](C(=O)N[C@@H](CC(N)=O)C(=O)N[C@H](C(=O)NCC(=O)N[C@@H](CO)C(=O)N[C@@H](Cc1c[nH]cn1)C(=O)N[C@H](C(=O)N[C@@H](Cc1ccc(O)cc1)C(N)=O)[C@@H](C)O)C(C)C)[C@@H](C)O, also called compound 66) |
| 0.0103 | K([γGlu-C20 diacid])CNTATCATQRLAHFLRHSSPNFGAIPSSTNVGSNTY-NH2 (disulfide 2-7; N-terminus assumed; SMILES CC[C@H](C)[C@H](NC(=O)[C@H](C)NC(=O)CNC(=O)[C@H](Cc1ccccc1)NC(=O)[C@H](CC(N)=O)NC(=O)[C@@H]1CCCN1C(=O)[C@H](CO)NC(=O)[C@H](CO)NC(=O)[C@H](Cc1c[nH]cn1)NC(=O)[C@H](CCCNC(=N)N)NC(=O)[C@H](CC(C)C)NC(=O)[C@H](Cc1ccccc1)NC(=O)[C@H](Cc1c[nH]cn1)NC(=O)[C@H](C)NC(=O)[C@H](CC(C)C)NC(=O)[C@H](CCCNC(=N)N)NC(=O)[C@H](CCC(N)=O)NC(=O)[C@@H](NC(=O)[C@H](C)NC(=O)[C@@H]1CSSC[C@H](NC(=O)[C@@H](N)CCCCNC(=O)CC[C@H](NC(=O)CCCCCCCCCCCCCCCCCCC(=O)O)C(=O)O)C(=O)N[C@@H](CC(N)=O)C(=O)N[C@@H]([C@@H](C)O)C(=O)N[C@@H](C)C(=O)N[C@@H]([C@@H](C)O)C(=O)N1)[C@@H](C)O)C(=O)N1CCC[C@H]1C(=O)N[C@@H](CO)C(=O)N[C@@H](CO)C(=O)N[C@H](C(=O)N[C@@H](CC(N)=O)C(=O)N[C@H](C(=O)NCC(=O)N[C@@H](CO)C(=O)N[C@@H](CC(N)=O)C(=O)N[C@H](C(=O)N[C@@H](Cc1ccc(O)cc1)C(N)=O)[C@@H](C)O)C(C)C)[C@@H](C)O, also called compound 70) [N^ε1-[(4S)-4-carboxy-4-(19-carboxynonadecanoylamino)butanoyl]-[His14,Arg17,Pro21,Pro27]-h-amylin] |
| 0.0569 | K([γGlu-γGlu-C20 diacid])CNTATCATQRLADFLRHSSPNFGAIPSSTNVGSRTY-NH2 (disulfide 2-7; N-terminus assumed; SMILES CC[C@H](C)[C@H](NC(=O)[C@H](C)NC(=O)CNC(=O)[C@H](Cc1ccccc1)NC(=O)[C@H](CC(N)=O)NC(=O)[C@@H]1CCCN1C(=O)[C@H](CO)NC(=O)[C@H](CO)NC(=O)[C@H](Cc1c[nH]cn1)NC(=O)[C@H](CCCNC(=N)N)NC(=O)[C@H](CC(C)C)NC(=O)[C@H](Cc1ccccc1)NC(=O)[C@H](CC(=O)O)NC(=O)[C@H](C)NC(=O)[C@H](CC(C)C)NC(=O)[C@H](CCCNC(=N)N)NC(=O)[C@H](CCC(N)=O)NC(=O)[C@@H](NC(=O)[C@H](C)NC(=O)[C@@H]1CSSC[C@H](NC(=O)[C@@H](N)CCCCNC(=O)CC[C@H](NC(=O)CC[C@H](NC(=O)CCCCCCCCCCCCCCCCCCC(=O)O)C(=O)O)C(=O)O)C(=O)N[C@@H](CC(N)=O)C(=O)N[C@@H]([C@@H](C)O)C(=O)N[C@@H](C)C(=O)N[C@@H]([C@@H](C)O)C(=O)N1)[C@@H](C)O)C(=O)N1CCC[C@H]1C(=O)N[C@@H](CO)C(=O)N[C@@H](CO)C(=O)N[C@H](C(=O)N[C@@H](CC(N)=O)C(=O)N[C@H](C(=O)NCC(=O)N[C@@H](CO)C(=O)N[C@@H](CCCNC(=N)N)C(=O)N[C@H](C(=O)N[C@@H](Cc1ccc(O)cc1)C(N)=O)[C@@H](C)O)C(C)C)[C@@H](C)O, also called compound 52) |
| 0.0325 | K([γGlu-γGlu-C20 diacid])CNTATCATQRLADFLRHSSPNFGAPLSSTNVGSDTY-NH2 (disulfide 2-7; N-terminus assumed; SMILES CC(C)C[C@H](NC(=O)[C@H](CCCNC(=N)N)NC(=O)[C@H](CCC(N)=O)NC(=O)[C@@H](NC(=O)[C@H](C)NC(=O)[C@@H]1CSSC[C@H](NC(=O)[C@@H](N)CCCCNC(=O)CC[C@H](NC(=O)CC[C@H](NC(=O)CCCCCCCCCCCCCCCCCCC(=O)O)C(=O)O)C(=O)O)C(=O)N[C@@H](CC(N)=O)C(=O)N[C@@H]([C@@H](C)O)C(=O)N[C@@H](C)C(=O)N[C@@H]([C@@H](C)O)C(=O)N1)[C@@H](C)O)C(=O)N[C@@H](C)C(=O)N[C@@H](CC(=O)O)C(=O)N[C@@H](Cc1ccccc1)C(=O)N[C@@H](CC(C)C)C(=O)N[C@@H](CCCNC(=N)N)C(=O)N[C@@H](Cc1c[nH]cn1)C(=O)N[C@@H](CO)C(=O)N[C@@H](CO)C(=O)N1CCC[C@H]1C(=O)N[C@@H](CC(N)=O)C(=O)N[C@@H](Cc1ccccc1)C(=O)NCC(=O)N[C@@H](C)C(=O)N1CCC[C@H]1C(=O)N[C@@H](CC(C)C)C(=O)N[C@@H](CO)C(=O)N[C@@H](CO)C(=O)N[C@H](C(=O)N[C@@H](CC(N)=O)C(=O)N[C@H](C(=O)NCC(=O)N[C@@H](CO)C(=O)N[C@@H](CC(=O)O)C(=O)N[C@H](C(=O)N[C@@H](Cc1ccc(O)cc1)C(N)=O)[C@@H](C)O)C(C)C)[C@@H](C)O, also called compound 1) |

Reference: patent US20140087995A1 (published 2014)
